Test results reported in publication PMC5316958, “A combination of mutational and computational scanning guides the design of an artificial ligand-binding controlled lipase” (Scientific Reports, 2017).
“And” between values parts separate entries of the source, which are not always exact repeats. Equal values may be shown once.

B1: CitAP-BsLA (enzyme)
chain: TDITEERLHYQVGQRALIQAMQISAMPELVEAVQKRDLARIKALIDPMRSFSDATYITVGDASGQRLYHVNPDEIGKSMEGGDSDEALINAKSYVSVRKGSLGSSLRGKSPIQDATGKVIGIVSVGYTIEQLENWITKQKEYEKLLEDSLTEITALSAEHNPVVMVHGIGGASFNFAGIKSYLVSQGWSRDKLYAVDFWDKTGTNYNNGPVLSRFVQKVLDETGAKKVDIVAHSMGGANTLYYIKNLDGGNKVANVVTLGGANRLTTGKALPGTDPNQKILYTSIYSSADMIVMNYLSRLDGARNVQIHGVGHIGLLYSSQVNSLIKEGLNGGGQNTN

Legend:
[1] = target: T1, Bacillus subtilis lipase A (BsLA) (Bacillus subtilis, UniProt P37957); assay: hydrolysis of p-NPB by purified enzyme, p-nitrophenolate release at […] nm (specific activity); format: biochemical
T1 construct: gene estA; purified wild-type BsLA

[2] = target: the molecule itself; assay: AUC; sedimentation velocity, CitAP-BsLA 0.5 mg/ml, 10 mM glycine buffer pH 10, 10 mM NaCl, with or without 1 mM sodium citrate, 25 °C, 40 krpm; c(s) with Bayesian prior, discrete species of known mass; monomer, dimer and higher oligomers
SAXS = target: the molecule itself; assay: SAXS

Row | Molecule | hydrolysis of p-NPB by purified enzyme, p-nitrophenolate release at 410 nm (spec) [1] [U/mg] | stoichiometry N [2] | Kd (SAXS)
1 | CCCC(=O)Oc1ccc([N+](=O)[O-])cc1 [p-nitrophenylbutyrate] | 181 ± 3 | – | –
2 | B1 | – | 2 | 24 µM and 29 µM
